Results taken from patent US9193963B2, “Mutant endoglucanase” (Toray Industries, Inc., priority 2011, dated 2015).

Legend:
[1] = Saccharification of lignocellulose 2 with Trichoderma reesei culture solution and endoglucanase; assay type: biochemical, Rice straw; settings: Lignocellulose 2, 24 hours; cellulase 1.0 mg/mL + endoglucanase 0.1 mg/mL + β-glucosidase (Novozyme 188) 0.01 mg/mL
Procedure, shortened: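 Dilute-sulfuric-acid-autoclaved rice straw (pH ~5) suspended at 5 wt % in 50 mM acetate pH 5.2, hydrolysed 24 h at 50 °C. Enzymes: T. reesei culture solution 1.0 mg/mL, mutant or wild-type endoglucanase 0.1 mg/mL, β-glucosidase 0.01 mg/mL. Glucose released was measured.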

[2] = Inhibition experiment with vanillin: degradation of phosphoric acid swollen cellulose; assay type: biochemical; settings: enzyme 0.5 μM, 1 hour, 50° C., parent at 0 mM = 100%
Method: This substance was diluted using buffer and water to obtain a 2 wt % mixture so that the final concentration of sodium acetate was 50 mM (pH 5.2). This was designated as phosphoric acid swollen cellulose and used for the following examples.
The activity of the wild-type and the mutant endoglucanases to degrade phosphoric acid swollen cellulose in the presence of vanillin was measured. 1% phosphoric acid swollen cellulose/50 mM acetate buffer (pH 5.2) was used as a substrate. Vanillin (Sigma Aldrich) was added at final concentrations of 0, 5, 10, and 15 mM. The enzymes prepared in Reference Example 1 and Example 2 were added at a final concentration of 0.5 μM, followed by 1 hour of enzymatic reaction at 50° C.

[3] = Saccharification of lignocellulose 3 with Celluclast and endoglucanase; assay type: biochemical, Rice straw; settings: 5 wt % Lignocellulose 3, pH 5.2, 50° C., 24 hours; 1.0 mg/mL cellulase + 0.1 mg/mL endoglucanase
Procedure, shortened: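 Hydrothermally pretreated rice straw (180° C., 20 min) at 5 wt % in 50 mM acetate buffer pH 5.2 digested at 50° C. for 24 h with Celluclast 1.0 mg/mL plus mutant or wild-type endoglucanase 0.1 mg/mL. Released glucose measured over time.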

[4] = Activity to degrade phosphoric acid swollen cellulose; assay type: biochemical; settings: 1% phosphoric acid swollen cellulose, pH 5.2, enzyme 0.5 μM, 1 hour, 50° C.; glucose generated by each parent endoglucanase = 100%
Procedure, shortened: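 Enzyme added to phosphoric acid swollen cellulose in 50 mM acetate buffer, pH 5.2; 1 h reaction at 30–85 °C, stopped by pH change if needed. Glucose released measured by glucose kit; activity expressed relative to parent endoglucanase set at 100%.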

[5] = Saccharification of lignocellulose 1 with Celluclast and endoglucanase; assay type: biochemical, Rice straw; settings: 5 wt % Lignocellulose 1, pH 5.2, 50° C., 24 hours; 1.0 mg/mL cellulase + 0.1 mg/mL endoglucanase
Procedure, shortened: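 Rice straw pretreated with liquid ammonia (15 min room temperature, then 1 h at 150° C), suspended at 5 wt % in 50 mM acetate pH5.2. Hydrolysed at 50° C for 24 h with 1.0 mg/mL Trichoderma reesei cellulase plus 0.1 mg/mL mutant or wild-type endoglucanase; glucose measured.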

[6] = Inhibition experiment with ferulic acid: degradation of phosphoric acid swollen cellulose; assay type: biochemical; settings: enzyme 0.5 μM, 1 hour, 50° C., parent at 0 mM = 100%
[7] = Saccharification of lignocellulose 1 with Trichoderma reesei culture solution and endoglucanase; assay type: biochemical, Rice straw; settings: Lignocellulose 1, 24 hours; cellulase 1.0 mg/mL + endoglucanase 0.1 mg/mL + β-glucosidase (Novozyme 188) 0.01 mg/mL
Procedure, shortened: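 Substrate was liquid-ammonia-treated rice straw (1 h, 150 °C), suspended at 5 wt % in 50 mM acetate buffer pH 5.2 and hydrolysed for 24 h at 50 °C. Enzymes: T. reesei culture solution 1.0 mg/mL, mutant or wild-type endoglucanase 0.1 mg/mL, β-glucosidase 0.01 mg/mL. Glucose released was measured.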

[8] = Saccharification of lignocellulose 2 with Celluclast and endoglucanase; assay type: biochemical, Rice straw; settings: 5 wt % Lignocellulose 2, pH 5.2, 50° C., 24 hours; 1.0 mg/mL cellulase + 0.1 mg/mL endoglucanase
Procedure, shortened: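 Dilute-sulfuric-acid-pretreated rice straw (10 wt% solids, pH ~5) suspended at 5 wt% in 50 mM acetate buffer pH 5.2 was digested 24 h at 50 °C with 1.0 mg/mL Trichoderma reesei Celluclast plus 0.1 mg/mL mutant or wild-type endoglucanase; glucose released was measured.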

[9] = Saccharification of lignocellulose 3 with Trichoderma reesei culture solution and endoglucanase; assay type: biochemical, Rice straw; settings: Lignocellulose 3, 24 hours; cellulase 1.0 mg/mL + endoglucanase 0.1 mg/mL + β-glucosidase (Novozyme 188) 0.01 mg/mL
Procedure, shortened: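 Hydrothermally treated rice straw (180 °C, 20 min, 10 MPa; solid fraction) suspended at 5 wt % in 50 mM acetate buffer pH 5.2, hydrolysed 24 h at 50 °C. Enzymes: T. reesei culture-solution cellulase 1.0 mg/mL, mutant or wild-type endoglucanase 0.1 mg/mL, β-glucosidase 0.01 mg/mL; glucose generated measured.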

B1: EGIa2 Mutant: mutant EgIa2, SEQ ID NO: 14; residue corresponding to 273rd tryptophan substituted with alanine (protein)
chain: MYREKSCGSTIMDVYYRARGTEIYIERKGVEKPLYIFGINWAGFEWRGRVVGGLHVRNWVEILQQIKSLGFNAIRIPFCAESVKPGVFPAPRTINYALNRDLIGLDSISIMEKIIAKAAELELYILLCFHNISCLIMEPLWYTPLFSEQQFIDTWIRVAKRFSRYWNVIGAELYNNPHGRLPPSYYYESGECATWGMGNPKTDWNLAAERIGRAVLEVAPHWLIIVKGTQLTNPRSDNVPLYPEATYAGENLRAVRDYPVNLPRDKLVYGVDIYGPDVYYMPYFNDPNIFPDKLYLIWDQNWGYVKKELGYPLIIAEFGGLYGRGDPRDVIWHQKLVEYMISNNICHWFYNALNPDNPSTAGLLENDWRTVREDKMALLRRAMDYCRERYGNI
modifications: Ignisphaera aggregans EGla2 W248A
notes: residue corresponding to 273rd tryptophan substituted with alanine
- Concentration of glucose generated, Culture solution + Mutant [1]: 13 g/L
- Relative activity to degrade phosphoric acid swollen cellulose ([2]; vanillin 0 mM): 100%
- Relative activity to degrade phosphoric acid swollen cellulose ([2]; vanillin 5 mM): 95%
- Relative activity to degrade phosphoric acid swollen cellulose ([2]; vanillin 10 mM): 90%
- Relative activity to degrade phosphoric acid swollen cellulose ([2]; vanillin 15 mM): 90%
- Concentration of glucose generated, Celluclast + Mutant [3]: 14 g/L
- Relative activity [4]: 100%
- Concentration of glucose generated, Celluclast + Mutant [5]: 16 g/L
- Relative activity to degrade phosphoric acid swollen cellulose ([6]; ferulic acid 0 mM): 100%
- Relative activity to degrade phosphoric acid swollen cellulose ([6]; ferulic acid 5 mM): 95%
- Relative activity to degrade phosphoric acid swollen cellulose ([6]; ferulic acid 10 mM): 90%
- Relative activity to degrade phosphoric acid swollen cellulose ([6]; ferulic acid 15 mM): 90%
- Concentration of glucose generated, Culture solution + Mutant [7]: 13 g/L
- Concentration of glucose generated, Celluclast + Mutant [8]: 16 g/L
- Concentration of glucose generated, Culture solution + Mutant [9]: 11 g/L
